Results as given in US20150203577A1 (Chugai, published 2015).
Residue numbers refer to the chain shown, from its start. Names and notes keep the numbering of the source.

T1: mouse FcγRII extracellular domain with C-terminal His tag (mouse, UniProt P08101 30-210)
T1 construct: Made on the basis of NCBI NP-034317.1; also called mFcγRII; mFcgRII
T1 sequence: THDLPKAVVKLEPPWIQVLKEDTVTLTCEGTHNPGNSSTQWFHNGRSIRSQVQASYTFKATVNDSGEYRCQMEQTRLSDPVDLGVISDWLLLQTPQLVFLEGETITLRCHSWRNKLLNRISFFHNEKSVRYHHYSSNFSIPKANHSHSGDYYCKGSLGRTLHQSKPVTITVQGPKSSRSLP

T2: mouse FcγRIII extracellular domain with C-terminal His tag (mouse, UniProt P08508 31-215)
T2 construct: Made on the basis of NCBI NP-034318.2; also called mFcγRIII; mFcgRIII
T2 chain: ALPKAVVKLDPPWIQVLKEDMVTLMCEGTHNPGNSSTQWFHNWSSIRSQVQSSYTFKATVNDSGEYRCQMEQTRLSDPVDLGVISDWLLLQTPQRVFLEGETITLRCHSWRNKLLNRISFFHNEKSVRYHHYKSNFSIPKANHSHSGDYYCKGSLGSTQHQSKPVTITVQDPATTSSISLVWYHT

B1: H237-MB302/MRAL-k0 (antibody, mouse IgG1, kappa)
heavy: QVQLQESGPGLVKPSETLSLTCAVSGHSISHDHAWSWVRQPPGEGLEWIGFISYSGITNYNPSLQGRVTISRDNSKNTLYLQMNSLRAEDTAVYYCARSLARTTAMDYWGEGTLVTVSSAKTTPPSVYPLAPGSAAQTNSMVTLGCLVKGYFPEPVTVTWNSGSLSSGVHTFPAVLQSDLYTLSSSVTVPSSTWPSETVTCNVAHPASSTKVDKKIVPRDCGCKPCICEVPEVEDVFIFPPKPKDVLTITLTPKVTCVVVDISKDDPEVQFSWFVDDVEVHTAQTQPREEQFNSTFRSVSELPIMHQDWLNGKEFKCRVNSAAFPAPIEKTISKTKGRPKAPQVYTIPPPKEQMAKDKVSLTCMITDFFPEDITVEWQWNGQPAENYKNTQPIMDTDGSYFVYSKLNVQKSNWEAGNTFTCSVLHEGLHNHHTEKSLSHSPGK
light: not shown
notes: copies: 2 + 2
B2: H237-MB322/MRAL-k0 (antibody, mouse IgG1, kappa)
heavy: B1 heavy with V230D, P231E
light: not shown
notes: copies: 2 + 2
B3: H237-MB367/MRAL-k0 (antibody, mouse IgG1, kappa)
heavy: B1 heavy with V230A, P231N
light: not shown
notes: mIgG1 with T230E/V231A/P232N/S238E/S239D (EU); copies: 2 + 2
B4: H237-MB391/MRAL-k0 (antibody, mouse IgG1, kappa)
heavy: B1 heavy with V230P, P231W
light: not shown
notes: copies: 2 + 2
B5: H237-MB339/MRAL-k0 (antibody, mouse IgG1, kappa)
heavy: B1 heavy with P231W
light: not shown
notes: copies: 2 + 2
B6: H237-MB388/MRAL-k0 (antibody, mouse IgG1, kappa)
heavy: B1 heavy with V230P
light: not shown
notes: copies: 2 + 2
B7: H237-MB319/MRAL-k0 (antibody, mouse IgG1, kappa)
heavy: B1 heavy with V230A, P231E
light: not shown
notes: copies: 2 + 2
B8: H237-MB380/MRAL-k0 (antibody, mouse IgG1, kappa)
heavy: B1 heavy with V230D, P231A
light: not shown
notes: copies: 2 + 2
B9: H237-MB306/MRAL-k0 (antibody, mouse IgG1, kappa)
heavy: B1 heavy with E229T, V230A
light: not shown
notes: copies: 2 + 2
B10: H237-MB310/MRAL-k0 (antibody, mouse IgG1, kappa)
heavy: B1 heavy with E229T, V230D
light: not shown
notes: copies: 2 + 2
B11: H237-MB338/MRAL-k0 (antibody, mouse IgG1, kappa)
heavy: B1 heavy with V230D
light: not shown
notes: copies: 2 + 2
B12: H237-MB337/MRAL-k0 (antibody, mouse IgG1, kappa)
heavy: B1 heavy with V230A
light: not shown
notes: copies: 2 + 2
B13: H237-MB341/MRAL-k0 (antibody, mouse IgG1, kappa)
heavy: B1 heavy with V230D, P231W
light: not shown
notes: copies: 2 + 2
B14: H237-MB383/MRAL-k0 (antibody, mouse IgG1, kappa)
heavy: B1 heavy with V230N
light: not shown
notes: copies: 2 + 2
B15: H237-MB385/MRAL-k0 (antibody, mouse IgG1, kappa)
heavy: B1 heavy with V230N, P231N
light: not shown
notes: copies: 2 + 2
B16: H237-MB313/MRAL-k0 (antibody, mouse IgG1, kappa)
heavy: B1 heavy with E229T, P231E
light: not shown
notes: copies: 2 + 2
B17: H237-MB378/MRAL-k0 (antibody, mouse IgG1, kappa)
heavy: B1 heavy with P231N
light: not shown
notes: copies: 2 + 2
B18: H237-MB318/MRAL-k0 (antibody, mouse IgG1, kappa)
heavy: B1 heavy with P231E
light: not shown
notes: copies: 2 + 2
B19: H237-MB377/MRAL-k0 (antibody, mouse IgG1, kappa)
heavy: B1 heavy with P231A
light: not shown
notes: copies: 2 + 2
B20: H237-MB384/MRAL-k0 (antibody, mouse IgG1, kappa)
heavy: B1 heavy with V230N, P231A
light: not shown
notes: copies: 2 + 2
B21: H237-MB381/MRAL-k0 (antibody, mouse IgG1, kappa)
heavy: B1 heavy with V230D, P231N
light: not shown
notes: copies: 2 + 2
B22: H237-MB386/MRAL-k0 (antibody, mouse IgG1, kappa)
heavy: B1 heavy with V230N, P231W
light: not shown
notes: copies: 2 + 2
B23: H237-MB358/MRAL-k0 (antibody, mouse IgG1, kappa)
heavy: B1 heavy with V230A, P231A
light: not shown
notes: copies: 2 + 2
B24: H237-MB340/MRAL-k0 (antibody, mouse IgG1, kappa)
heavy: B1 heavy with V230A, P231W
light: not shown
notes: copies: 2 + 2

biological target: T1, mouse FcγRII extracellular domain with …; test: SPR Biacore T200; KD mFcγRIII / KD mFcγRII
Procedure: (§1) Each altered antibody was analyzed for its interaction with each Fcγ receptor prepared above using Biacore T100 (GE Healthcare Japan Corp.), Biacore T200 (GE Healthcare Japan Corp.), Biacore A100, or Biacore 4000. The running buffer used was HBS-EP+ (GE Healthcare Japan Corp.). The assay temperature was set to 25° C. The sensor chips used were chips prepared by immobilizing Protein L (ACTIGEN or BioVision) onto Series S Sensor Chip CM5 (GE Healthcare Japan Corp.) or Series S Sensor Chip CM4 (GE Healthcare Japan Corp.) by the amine coupling method.
(§2) In order to calculate the KD value of each altered antibody for FcγR, kinetic analysis was conducted according to the following method: first, the antibody of interest was captured onto any of these chips and allowed to interact with mFcγR diluted with a running buffer. For the obtained sensorgram, the assay results were globally fit into the 1:1 Langmuir binding model using Biacore Evaluation Software to calculate an association rate constant ka (L/mol/s) and a dissociation rate constant kd (1/s). From these values, the dissociation constant KD (mol/L) was calculated.

Binder | relative I/A (mFcγRII selectivity) (mIgG1 = 1) | I/A (mFcγRII selectivity)
B1 | 12 | –
B2 | 7.3 | –
B3 | 25.6 | –
B4 | 25.9 | 34.7
B5 | 17 | –
B6 | 25.9 | 34.6
B7 | 14.1 | –
B8 | 18.7 | –
B9 | 15.7 | –
B10 | 10.1 | –
B11 | 16.5 | –
B12 | 16 | –
B13 | 23.4 | 31.4
B14 | 19.6 | –
B15 | 19.2 | –
B16 | 10.1 | –
B17 | 18.6 | –
B18 | 10.5 | –
B19 | 21.3 | –
B20 | 19.8 | –
B21 | 16.5 | –
B22 | 18.6 | 24.9
B23 | 27.7 | –
B24 | 22.4 | 30

Biological target: T2, mouse FcγRIII extracellular domain with …
Test: SPR Biacore T200
Procedure: as §1, §2

Binder | relative mFcγRIII-binding activity (mIgG1 = 1) | Kd
B1 | 4.5 | –
B2 | 1.3 | –
B3 | 6.2 | –
B4 | 10.9 | 0.0259 µM
B5 | 11.6 | –
B6 | 10.8 | 0.0262 µM
B7 | 3.6 | –
B8 | 4.2 | –
B9 | 4.2 | –
B10 | 3.8 | –
B11 | 2.6 | –
B12 | 4.6 | –
B13 | 11.5 | 0.0246 µM
B14 | 5.4 | –
B15 | 7.9 | –
B16 | 4 | –
B17 | 9.3 | –
B18 | 3.9 | –
B19 | 6 | –
B20 | 6.3 | –
B21 | 5.7 | –
B22 | 14.5 | 0.0195 µM
B23 | 4.1 | –
B24 | 9.9 | 0.0286 µM

biological target: T1, mouse FcγRII extracellular domain with …; test: SPR Biacore T200
Procedure: as §1, §2

Binder | relative mFcγRII-binding activity (mIgG1 = 1) | Kd
B1 | 53.7 | –
B2 | 9.2 | –
B3 | 159 | –
B4 | 281 | 0.000747 µM
B5 | 197 | –
B6 | 277 | 0.000757 µM
B7 | 50 | –
B8 | 78.1 | –
B9 | 65.8 | –
B10 | 38.8 | –
B11 | 42.2 | –
B12 | 73.4 | –
B13 | 268 | 0.000782 µM
B14 | 106 | –
B15 | 152 | –
B16 | 40.1 | –
B17 | 172 | –
B18 | 40.5 | –
B19 | 127 | –
B20 | 125 | –
B21 | 93.5 | –
B22 | 268 | 0.000784 µM
B23 | 114 | –
B24 | 221 | 0.000952 µM
